This is an account of results in PMC8304084, “A Concerted Action of UBA5 C-Terminal Unstructured Regions Is Important for Transfer of Activated UFM1 to UFC1” (International Journal of Molecular Sciences, 2021).

Assay [1] addresses T1, GABARAPL2 (Homo sapiens, UniProt P60520).
T1 construct: modified ubiquitin tag (Ub19) with TEV site (N, cleaved yes); made in house; host or cells: E. coli T7 Express
The assay can be described thus: ITC, UBA5 peptides vs GABARAPL2. Particulars: 25 °C. The assay is classed as binding. From the text: (§1) To understand how the UBA5 C-terminus participates in the ufmylation cascade, we performed isothermal titration calorimetry (ITC) experiments, in which we titrated UBA5 C-terminal peptides (see Table 1) to the UBA5 AD, UFC1, UFM1 and representative LC3/GABARAP proteins (Figure 2A, Supplementary Figure S2A–D and Table 2).
(§2) All proteins and peptides were expressed in E.Coli T7 Express (New England Biolabs GmbH, Frankfurt, Germany) cells in LB or M9 (to obtain ^15N- and ^13C,^15N-labeled polypeptides) media according to the protocol described in [33, 36]. For protein purification, bacterial cell pellets were resuspended in lysis buffer (50 mM Tris-HCl pH = 7.5, 100 mM NaCl, 5% glycerol, 5 mM PIC (protease inhibitor cocktail)) and lysed via sonication (TT13 Sonotrode, 40% amplitude, for 6 × 1 min with a 0.5/0.5-s pulse). Lysates were centrifuged for 45 min at 17,000× g at 4 °C. Supernatants were loaded onto a His Trap Fast Flow 5 mL column (GE Healthcare, München, Germany) equilibrated in loading buffer (50 mM Tris-HCl pH = 8.0, 250 mM NaCl, 1% glycerol, 20 mM imidazole). The column was washed with loading buffer for 5–10 CV and protein was eluted with elution buffer (50 mM Tris-HCl pH = 8, 250 mM NaCl, 1% glycerol, 400 mM imidazole). Simultaneous TEV cleavage (1 mg TEV protease was added to 100 mg peptides/proteins) and buffer exchange to loading buffer via dialysis was performed over night at 4 °C. After reverse IMAC, proteins were concentrated with conical concentrators (Millipore Merck, Darmstadt, Germany) and loaded on a Superdex 10/60 75 or 200 column (GE Healthcare, München, Germany) for further purification and equilibration with ITC/NMR buffer (25 mM HEPES pH = 7.5, 100 mM NaCl). For structural NMR spectroscopy, buffer containing 50 mM Tris-HCl pH = 7.5, 100 mM NaCl was used. Prior to NMR experiments, TCEP and protease inhibitors cocktail were added to the samples to final concentrations 1 and 5 mM, respectively. Purified peptides and protein were concentrated and stored at −80 °C. The protein and peptide concentrations were calculated from the UV absorption at 280 nm by Nanodrop spectrophotometer (Thermo Scientific, Langenselbold, Germany).
(§3) All ITC experiments were performed at 25 °C using a VP-ITC microcalorimeter (Malvern Panalytical Ltd., Malvern, UK). Peptides in concentration of ~400 µM were titrated into 20–25 µM solutions of corresponding binding partner at a stirring speed of 307 rpm. The raw data were corrected on the dilution heat of peptides obtained in independent experiment (titration of the peptide in syringe into the ITC/NMR buffer in the measuring cell). Pre-titration delay was set to 180 s, interval between titration steps was experimentally adjusted to avoid kinetic contribution to the observed heat effects and set to 200 s. A single ITC profile was collected for each type of interaction. The ITC data were analyzed based on a “one-site” binding model with MicroCal ITC software implemented in Origin 7.0.

For assay [2], the target named is T2, UFM1 (Homo sapiens, UniProt P61960).
T2 construct: Full length UFM1, residues 2–83; modified ubiquitin tag (Ub19) with TEV site (N, cleaved yes); made in house; host or cells: E. coli T7 Express
Put plainly: ITC, UBA5 peptides vs UFM1. Format: binding. Particulars: 25 °C.
Description: as §1, §2, §3

Assay [3] deals with UBA5 AD^1–330. The assay can be described thus: ITC, UBA5 C-terminus vs UBA5 AD. The assay is classed as binding. Particulars: 25 °C, R1-R2-R3^325–404 titrated into AD^1–330 solution.
Description: as §1
All proteins and peptides were expressed in E.Coli T7 Express (New England Biolabs GmbH, Frankfurt, Germany) cells in LB or M9 (to obtain ^15N- and ^13C,^15N-labeled polypeptides) media according to the protocol described in [33, 36]. For protein purification, bacterial cell pellets were resuspended in lysis buffer (50 mM Tris-HCl pH = 7.5, 100 mM NaCl, 5% glycerol, 5 mM PIC (protease inhibitor cocktail)) and lysed via sonication (TT13 Sonotrode, 40% amplitude, for 6 × 1 min with a 0.5/0.5-s pulse). Lysates were centrifuged for 45 min at 17,000× g at 4 °C. […] The protein and peptide concentrations were calculated from the UV absorption at 280 nm by Nanodrop spectrophotometer (Thermo Scientific, Langenselbold, Germany).
All ITC experiments were performed at 25 °C using a VP-ITC microcalorimeter (Malvern Panalytical Ltd., Malvern, UK). […] The ITC data were analyzed based on a “one-site” binding model with MicroCal ITC software implemented in Origin 7.0. […]
For orientation: In ITC the heat of successive injections is recorded.

The target in assay [4] is T3, UFC1 (Homo sapiens, UniProt Q9Y3C8).
T3 construct: Full length UFC1, residues 1–167; modified ubiquitin tag (Ub19) with TEV site (N, cleaved yes); made in house; host or cells: E. coli T7 Express
T3 sequence (Q9Y3C8 1-167): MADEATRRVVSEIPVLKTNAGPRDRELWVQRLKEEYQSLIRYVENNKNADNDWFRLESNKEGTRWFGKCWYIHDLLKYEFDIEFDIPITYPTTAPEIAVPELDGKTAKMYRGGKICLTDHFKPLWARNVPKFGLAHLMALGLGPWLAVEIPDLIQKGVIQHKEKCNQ
The assay can be described thus: In vitro thioester formation (ufmylation) assay, UFC1~UFM1 conjugate. Particulars: 1 mM ATP, 22 °C; peptides added to UBA5 AD^1–330 where applicable. Format: biochemical. As for the experimental part: First, we analyzed the effect of the UBA5 C-terminus on UFM1 transfer to UFC1 with an in vitro thioester formation assay (Figure 1B–E).
Ufmylation reaction assays were adopted from work of Xie. Briefly, 70 µM UFM1, 20 µM UFC1 and 20 µM of different UBA5 constructs were mixed in reaction buffer (50 mM HEPES pH = 7.5, 100 mM NaCl, 5 mM MgCl2). After starting the reaction with addition of 1 mM ATP, the reaction mix was incubated at 22 °C for the desired time. To quench the reaction and prepare electrophoretic samples, 1 µL of the reaction mix was added to 99 µL 1x non-reducing SDS loading buffer and frozen in liquid nitrogen. Sample content was visualized by sodium dodecyl sulfate polyacrylamide gel electrophoresis (SDS-PAGE). The transfer to polyvinylidene difluoride (PVDF) membrane was performed via a Trans-Blot® Turbo™ Transfer System (Bio-Rad, München, Germany). After transfer the membrane was blocked with TBST (Tris-buffered saline with Tween20 buffer, 20 mM Tris, 150 mM NaCl and 0.1% TWEEN 20) containing 5% w/v nonfat dry milk for 1 h, followed by α-UFC1 antibody incubation over night at 4 °C (ab189251 abcam, 1:10,000 in TBST containing 5% w/v nonfat dry milk). After washing with TBST the membrane was incubated with secondary antibody (anti-rabbit-HRP) for 1 h at RT and again washed with TBST. Detection was performed by addition of ECL solution. For quantification of UFC1 ufmylation coloc2 software implemented in ImageJ was used.

T2 sequence (P61960 2-83): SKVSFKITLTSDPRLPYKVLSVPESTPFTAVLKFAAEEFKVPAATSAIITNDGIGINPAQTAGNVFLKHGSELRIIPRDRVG
T1 sequence (P60520 3-116): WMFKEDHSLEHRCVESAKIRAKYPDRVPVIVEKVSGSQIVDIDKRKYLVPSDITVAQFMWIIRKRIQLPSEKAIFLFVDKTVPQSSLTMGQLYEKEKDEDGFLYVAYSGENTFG

As for “R1-R2-R3^325–404: UBA5 C-terminal part, residues 325–404 (recombinant, E. coli)”, the values for the ΔG in assay [1] (vs GABARAPL2) and in assay [2] (vs UFM1) were -9.25 kcal/mol and -7.15 kcal/mol, respectively. In addition, the ΔS in assay [1] (vs GABARAPL2) was 2.04 cal mol^−1 K^−1; in assay [2] (vs UFM1, one-site model, single profile), 4.41 cal mol^−1 K^−1. Moreover, the “−T*ΔS” value was -0.61 kcal/mol in assay [1] (vs GABARAPL2) and -1.31 kcal/mol in assay [2] (vs UFM1). Moreover, the “KA*10^−6” value in assay [1] (vs GABARAPL2, value is KA × 10^−6, ± = fitting error) was determined as 5.99 ± 0.49 M^−1; in assay [2] (vs UFM1, value is KA × 10^−6, ± = fitting error), 0.17 ± 0.02 M^−1. Moreover, the “affinity change, UFM1” value in assay [2] (compared with isolated R1^325−357 peptide (ref 31)) is “does not change significantly”. Moreover, the “interaction with UBA5 AD” value was “does not interact with the UBA5 AD” in assay [3] and “No interactions” in assay [3] (listed as R1‐R2‐R3325–404). Moreover, in assay [4], the “effect on UFC1~UFM1 conjugation (in words)” value is given as “gets rescued”.
